In the assay the test system is γ-PAK. Description: Phosphorylation of protein substrates by γ-PAK. Type of assay: biochemical, rabbit. The conditions noted are these: for 32P incorporated: 2 μg protein substrate, 20 units active γ-PAK, 15 min at 30° C.; for rel rate: relative to histone 2B = 100. Here is the method: D. Phosphorylation Assays. Phosphorylation of protein substrates was carried out in 35 μL reaction mixtures containing 20 mM Tris-HCl, pH 7.4, 10 mM MgCl2, 30 mM 2-mercaptoethanol, 0.2 mM ATP (specific activity =1000 cpm/pmol), 2 μg of protein substrate, and 20 units of active γ-PAK (an enzyme unit is defined as the amount of enzyme that incorporates 1 pmol of phosphate into histone IIAS/ min at 30°. Under these conditions, phosphate incorporation was linear and initial rates of phosphorylation were measured. After incubation at 30° C. for 15 min, reactions were terminated by the addition of 5 μL of 100 mM nonlabeled ATP and sample buffer for gel electrophoresis [Hathaway, G. M., et al., Methods Enzymol., 60:495-511 (1979)]. Reaction mixtures were subjected to SDS-PAGE on 15% polyacrylamide gels followed by autoradiography. Phosphorylation was quantified by excising the protein band and counting the incorporated ^32P in a liquid scintillation counter. The specific activity of γ-PAK was 400 pmol min^−1 μg^−1 as reported previously using 0.2 mM ATP and 1 mg/mL mixed histone as substrate [Rooney, R. D., et al., (1996), supra].
A number of proteins were examined as substrates, and their relative rates of phosphorylation were compared (Table 6).

Chain of γ-PAK (Q29502 249-524 limits assumed): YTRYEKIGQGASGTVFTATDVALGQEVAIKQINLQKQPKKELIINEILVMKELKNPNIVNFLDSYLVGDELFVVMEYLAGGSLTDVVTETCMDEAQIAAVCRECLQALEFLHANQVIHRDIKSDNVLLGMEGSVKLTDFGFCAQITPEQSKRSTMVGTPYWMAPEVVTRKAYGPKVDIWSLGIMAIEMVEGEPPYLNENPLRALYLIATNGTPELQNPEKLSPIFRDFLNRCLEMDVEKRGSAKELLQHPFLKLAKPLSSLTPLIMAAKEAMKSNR

B1: myelin basic protein: bovine myelin basic protein, purchased from Sigma (protein)
chain: AAQKRPSQRSKYLASASTMDHARHGFLPRHRDTGILDSLGRFFGSDRGAPKRGSGKDGHHAARTTHYGSLPQKAQGHRPQDENPVVHFFKNIVTPRTPPPSQGKGRGLSLSRFSWGAEGQKPGFGYGGRASDYKSAHKGLKGHDAQGTLSKIFKLGGRDSRSGSPMARR
The molecule B1 came in with a 32P incorporated of 4.2 pmol and a rel rate of 37%.

B2: prolactin: rat prolactin (protein)
chain: LPVCSGGDCQTPLPELFDRVVMLSHYIHTLYTDMFIEFDKQYVQDREFIAKAINDCPTSSLATPEDKEQAQKVPPEVLLNLILSLVHSWNDPLFQLITGLGGIHEAPDAIISRAKEIEEQNKRLLEGIEKIISQAYPEAKGNEIYLVWSQLPSLQGVDEESKDLAFYNNIRCLRRDSHKVDNYLKFLRCQIVHKNNC
For the molecule B2, the 32P incorporated amounted to 1.8 pmol and the rel rate is reported as 17%.

(Values after US20030088057A1, “PEPTIDE SUBSTRATES PHOSPHORYLATED BY P21-ACTIVAGED PROTEIN KINASE STATEMENT REGARDING FEDERALLY SPONSORED REASEARCH OR DEVELOPMENT” (priority 1998, published 2003).)
